The source of these data is US20250034245A1 (FRED HUTCHINSON CANCER CENTER, published 2025).

Sequences and labels used below:
B1: S8-ATX1B6 (antibody, V domains shown)
VH: QVQLVESGGGVVLPGRSLRLSCAASGFTFNIYGMHWVRQAPGKGLEWVAVISYDGNNKEYADSVKGRFTISRDSSRNTLYLQMNSLRAEDTAVYYCAKRGYGSSSLEFWGQGTLVTVSS
VL: DIQMTQSPSSLSASVGDRVTITCRSSQDIRNDLGWYQQKPGKAPKRLIYASSNLQSGVPSRFSGSGSGTEFTLTISSLQPDDFATYYCLQHNTYPYTFGQGTKLEIK
notes: Only variable domains are tied to the name in the text; also made as IgG4 (S228P); also called Sig8-1B6; 11B6
B2: S8-ATX1B4 (antibody, V domains shown)
VH: QVQLVESGGGVVQPGRSLRLSCAASGFTFSIYGMHWVRQAPGKGLEWVAVISYDGNNKDYTDSVKGRFTISRDNSKNTLYLQMNSLTAEDTAVYYCAKRGYGSSSLEFWGQGTLVTVSS
VL: DIQMTQSPSSLSASVGDRVTITCRASQDIRNDLGWYQQKPGKAPKRLIYATSSLQSGVPSRFSGSRSGAEFTLTVSSLQPEDFATYYCLQHNTYPYTFGQGTKLEIK
notes: Only variable domains are tied to the name in the text; Produced as recombinant fully human IgG1 and IgG4 (S228P) with a kappa light chain; also called Sig8-1B4; 11B4
B3: S8-ATX1E1 (antibody, V domains shown)
VH: EVQLVESGGGLVQPGRSLRLSCAASGFMFDDYVMHWVRQAPGKGLEWVSGINWNSDNIGYADSVKGRFTISRDNAKNSLFLQMNSLRVEDTALYYCAKDIDAAAFDYWGQGTLVTVSS
VL: DIVMTQSPLSLPVTPGEPASISCRSSQSLLHSNGYSYLAWYLQKPGQSPQLLIYLVSNRASGVPDRFTGSGSGTDFTLKISRVEAEDVGVYYCMQALQTPWTFGQGTKVEIK
notes: Only variable domains are tied to the name in the text; Produced as recombinant human IgG1 and IgG4 (S228P), kappa light chain; also called Sig8-1E1
B4: S8-ATX2F10 (antibody, V domains shown)
VH: EVQLVESGGDLVKSGGSLRLSCAASGFTFSDAWMSWVRQAPGKGLEWVGRIQSKTDGGTTDYVAPVKGRFTISRDDSKDTLYLHMNSLTTEDTAVYYCTTDLYYYGSGSYFLGQGTLVTVSS
VL: DIQMTQSPSSLSASVGDRVTITCRASQNIITYLNWYQQKPGKAPKLLIYAASSLQSGVPSRFSGSGSGTDFTLTISSLQPEDFAIYHCQQSYNVPTTFGQGTKLEIK
notes: Only variable domains are tied to the name in the text; also IgG4 (S228P); also called Sig8-2F10; S8-2F10
B5: S8-ATX2A3 (antibody, V domains shown)
VH: QVQLQESGPGLVKPSETLSLTCTVSGASISGYYWNWIRQPPGKGLEWIGYIHYSGTTNYNPSLKSRITISLDTSENQFSLRLSSVTAADTAVYYCARDWYTGYDWEGFDYWGQGTLVTVSS
VL: QSVLTQPPSVSGAPGQRVSFSCTGTSSNIGTGFDVHWYRQLPGTAPKVLIYNNNNRPSGVPDRFSASKSGTSASLAITGLQAEDEADYYCQSYDSSLSGSVFGGGTRLTVL
notes: Only variable domains are tied to the name in the text; IgG1 format in ADCC and eosinophil assays; also called Sig8-2A3
B6: S8-ATX1H4 (antibody, V domains shown)
VH: QVQLVQSGTEVKYPGASVKVSCKASGYTFIDYGISWVRQAPGQGLEWMGWISAYNGNTDYAQKLQGRVTMTTDTSTSTAYMDLRSLRSDDTAVYYCAREGEGYCTYGVCPSFDYWGQGTLVTVSS
VL: EIVLTQSPGTLSLSPGERATLSCRASQSVSSSYLAWYQQKPGQAPRLLIYGASTRGTGIPDRFSGSGSGTDFTLTISRLEPEDFALYYCQQYGSSPYTFGQGTKLEIK
notes: Only variable domains are tied to the name in the text; Produced as recombinant human IgG1 and IgG4 (S228P), kappa light chain; also called Sig8-1H4
B7: S8-ATX1E4 (antibody, V domains shown)
VH: QVQLVQSGSELKKPGASVKVSCKTSGYTFTSYAMNWVRQAPGQGLEWMGWINTNTGNPTYAQGFRGRFVFSLDTSVSTAYLQISSLKAEDTAVYYCARDKYSSSWYWFDSWGQGTLVTVSS
VL: DIQMTQSPSSLSASVGDRVTITCRPSQNISSYLNWYQQKPGKAPKLLIYAASSLRSGVPSRFSGSGSGTDFTLTVSSLQPEDFANYYCQQSYSTPYTFGRGTKLEIK
notes: Only variable domains are tied to the name in the text; Produced as recombinant human IgG1 and IgG4 (S228P), kappa light chain; also called Sig8-1E4
B8: negative control mAb 13R4 (recognizing E. coli beta-galactosidase) (antibody, V domains shown)
VH: EVQLVESGGSLVKPGGSLRLSCAASGFTFSNYSMNWVRQAPGKGLEWISSISGSSRYIYYADFVKGRFTISRDNATNSLYLQMNSLRAEDTAVYYCVRSSITIFGGGMDVWGRGTLVTVSS
VL: QSVLTQPASVSGSPGQSITISCAGTSSDVGGYNYVSWYQQHPGKAPKLMIYEDSKRPSGVSNRFSGSKSGNTASLTISGLQAEDEADYYCSSYTTRSTRVFGGGTKLAVLG

In the first assay the target is T1, full-length human Siglec-8 (Siglec-8^FL) (human, UniProt Q9NYZ4 17-499).
T1 construct: whole, on cells; Expressed by lentiviral transduction on K562, RS4;11, TF-1, EOL-1 and other cells; the same id is used for Siglec-8 endogenously expressed on LUVA cells, HMC1.2 cells and primary human eosinophils; also called Siglec-8^Hu; SAF2
T1 sequence (Q9NYZ4 17-499): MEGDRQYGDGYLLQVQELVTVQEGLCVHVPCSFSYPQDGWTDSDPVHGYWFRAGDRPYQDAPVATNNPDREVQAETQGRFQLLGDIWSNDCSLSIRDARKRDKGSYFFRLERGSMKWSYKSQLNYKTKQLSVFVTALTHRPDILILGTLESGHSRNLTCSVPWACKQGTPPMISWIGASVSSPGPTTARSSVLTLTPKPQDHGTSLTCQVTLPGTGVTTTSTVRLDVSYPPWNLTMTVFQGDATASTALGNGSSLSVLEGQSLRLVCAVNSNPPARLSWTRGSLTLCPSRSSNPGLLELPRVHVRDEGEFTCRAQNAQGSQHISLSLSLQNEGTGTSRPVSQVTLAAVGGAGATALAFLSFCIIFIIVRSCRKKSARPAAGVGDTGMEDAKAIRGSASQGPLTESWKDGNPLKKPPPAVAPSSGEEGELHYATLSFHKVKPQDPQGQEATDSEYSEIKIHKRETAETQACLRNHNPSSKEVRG
The assay is described as follows: flow cytometry on K562 cells expressing Siglec-8 FL (FIG. 9C). The protocol:
(§1) FIGS. 9A-9D. Human Siglec-8 mAbs were tested flow cytometrically against (FIG. 9A) parental human lymphoid RS4; 11 cells (endogenously lacking Siglec-8 expression) and a subline engineered to express Siglec-8^FL, (FIG. 9B) parental human mast cell line, HMC1.2, enriched for expression of endogenous Siglec-8; and (FIG. 9C) parental human myeloid K562 (endogenously lacking Siglec-8 expression) and sublines of K562 cells engineered to express either Siglec-8^FL, Siglec-8^ΔE2, or Siglec-8^V-set; and (FIG. 9D) primary human eosinophils, as indicated. A negative control without primary mAbs was included, as was, in some experiments, a negative control with a non-binding primary mAb (13R4).
In general terms: A flow cytometer gives signals particle by particle.
As for B1, the binding result was “binds”.

Regarding B2, the binding result is listed as “binds”.

For B3, the binding result is “binds”.

Take B4: the binding result is “binds”.

As to B5, the binding result is recorded as “binds”.

B6: the binding result is “binds”.

B7: the binding result is “binds”.

The target in a further assay is T1, full-length human Siglec-8 (Siglec-8^FL). Put plainly: flow cytometry on Siglec-8-expressing cells, in some experiments of FIGS. 9A-9D. The protocol: as §1
As for B8, the binding result is given as “no binding”.
